The test system of the series is Escherichia coli TOP10. Description: shrunken log2 fold change of peptide-encoding DNA abundance (4.5 h post-induction vs induction); higher = less antimicrobial activity (less host growth inhibition). The settings on record: time post-induction: 4.5 h; library: site-saturation at positions 5, 18, 19, 20.
Take RRIRWRPPRLPRPRPRPSRKPRP: the “shrunken log2 fold change” value worked out at 0.244.

Regarding RRIRPRPPRLPRPRPRPCIPPRP, the “shrunken log2 fold change” value was -0.556.

On to RRIRVRPPRLPRPRPRPKKYPRP, for which the “shrunken log2 fold change” value was -0.411.

Take RRIRRRPPRLPRPRPRPELFPRP: the “shrunken log2 fold change” value came out at 1.06.

In the case of RRIRKRPPRLPRPRPRPKRMPRP, the “shrunken log2 fold change” value came to 0.296.

RRIRIRPPRLPRPRPRPFESPRP: the “shrunken log2 fold change” value is -0.218.

With RRIRVRPPRLPRPRPRPDCEPRP, the “shrunken log2 fold change” value is -0.0964.

Consider RRIRYRPPRLPRPRPRPMPDPRP, for which the “shrunken log2 fold change” value is -0.204.

As to RRIRRRPPRLPRPRPRPAPMPRP, the “shrunken log2 fold change” value turned out to be 0.957.

For RRIRQRPPRLPRPRPRPRLIPRP, the “shrunken log2 fold change” value was -0.076.

With RRIRVRPPRLPRPRPRPHLGPRP, the “shrunken log2 fold change” value is -0.132.

Turning to RRIRFRPPRLPRPRPRPRGIPRP, the “shrunken log2 fold change” value is -0.123.

As to RRIRFRPPRLPRPRPRPQSAPRP, the “shrunken log2 fold change” value was found to be 0.0283.

For RRIRKRPPRLPRPRPRPRIQPRP, the “shrunken log2 fold change” value came out at 0.475.

In the case of RRIRWRPPRLPRPRPRPCNHPRP, the “shrunken log2 fold change” value is -0.427.

As to RRIRMRPPRLPRPRPRPVWFPRP, the “shrunken log2 fold change” value came to 0.46.

With RRIRCRPPRLPRPRPRPACNPRP, the “shrunken log2 fold change” value is -0.0286.

In the case of RRIRWRPPRLPRPRPRPQFGPRP, the “shrunken log2 fold change” value stood at 0.0671.

Turning to RRIRVRPPRLPRPRPRPFKDPRP, the “shrunken log2 fold change” value is -0.166.

As for RRIRCRPPRLPRPRPRPIGVPRP, the “shrunken log2 fold change” value was 0.0129.

For the sequence RRIRIRPPRLPRPRPRPPMSPRP, the “shrunken log2 fold change” value was -0.288.

Consider RRIRDRPPRLPRPRPRPGSLPRP, for which the “shrunken log2 fold change” value was -0.0141.

For RRIRHRPPRLPRPRPRPSPHPRP, the “shrunken log2 fold change” value is -0.39.

As to RRIRARPPRLPRPRPRPIAWPRP, the “shrunken log2 fold change” value amounted to 0.442.

In the case of RRIRCRPPRLPRPRPRPCDCPRP, the “shrunken log2 fold change” value was -0.139.

On to RRIRCRPPRLPRPRPRPKYTPRP, for which the “shrunken log2 fold change” value was -0.511.

For the sequence RRIRPRPPRLPRPRPRPPMRPRP, the “shrunken log2 fold change” value stood at 0.833.

With RRIRIRPPRLPRPRPRPRSDPRP, the “shrunken log2 fold change” value is -0.284.

RRIRPRPPRLPRPRPRPNIYPRP: the “shrunken log2 fold change” value was -0.69.

In the case of RRIRMRPPRLPRPRPRPCYMPRP, the “shrunken log2 fold change” value is -0.605.

With RRIRKRPPRLPRPRPRPMNVPRP, the “shrunken log2 fold change” value is 0.13.

Regarding RRIRCRPPRLPRPRPRPHAKPRP, the “shrunken log2 fold change” value was -0.446.

Consider RRIRPRPPRLPRPRPRPYPAPRP, for which the “shrunken log2 fold change” value was -0.582.

For the sequence RRIRKRPPRLPRPRPRPHQNPRP, the “shrunken log2 fold change” value amounted to 0.0256.

On to RRIRCRPPRLPRPRPRPPPPPRP, for which the “shrunken log2 fold change” value stood at 1.55.

For RRIRDRPPRLPRPRPRPSWIPRP, the “shrunken log2 fold change” value was -0.454.

For RRIRMRPPRLPRPRPRPCSRPRP, the “shrunken log2 fold change” value was 0.296.

Turning to RRIRWRPPRLPRPRPRPHPHPRP, the “shrunken log2 fold change” value is -0.0616.

Turning to RRIRNRPPRLPRPRPRPPSAPRP, the “shrunken log2 fold change” value is 0.726.

Consider RRIRIRPPRLPRPRPRPFIPPRP, for which the “shrunken log2 fold change” value is -0.697.

As to RRIRPRPPRLPRPRPRPRMHPRP, the “shrunken log2 fold change” value worked out at 0.115.

Regarding RRIRWRPPRLPRPRPRPLNLPRP, the “shrunken log2 fold change” value was -0.184.

With RRIRWRPPRLPRPRPRPMNAPRP, the “shrunken log2 fold change” value was found to be 0.327.

Turning to RRIRYRPPRLPRPRPRPTHAPRP, the “shrunken log2 fold change” value is -0.0504.

On to RRIRQRPPRLPRPRPRPGCSPRP, for which the “shrunken log2 fold change” value worked out at 0.0894.

Turning to RRIRTRPPRLPRPRPRPNKYPRP, the “shrunken log2 fold change” value is -0.76.

RRIRFRPPRLPRPRPRPFSPPRP: the “shrunken log2 fold change” value is -1.12.

As to RRIRLRPPRLPRPRPRPLHKPRP, the “shrunken log2 fold change” value amounted to 0.223.

For the sequence RRIRERPPRLPRPRPRPYQAPRP, the “shrunken log2 fold change” value is 0.019.

Regarding RRIRVRPPRLPRPRPRPIYGPRP, the “shrunken log2 fold change” value was -0.0564.

On to RRIRMRPPRLPRPRPRPIILPRP, for which the “shrunken log2 fold change” value was -0.0572.

In the case of RRIRHRPPRLPRPRPRPDQSPRP, the “shrunken log2 fold change” value was -0.016.

Take RRIRTRPPRLPRPRPRPKSNPRP: the “shrunken log2 fold change” value was -0.448.

On to RRIRFRPPRLPRPRPRPRNAPRP, for which the “shrunken log2 fold change” value was determined as 0.347.

Take RRIRDRPPRLPRPRPRPKKTPRP: the “shrunken log2 fold change” value is -0.0142.

Take RRIRTRPPRLPRPRPRPQEYPRP: the “shrunken log2 fold change” value is -0.0331.

Regarding RRIRARPPRLPRPRPRPKDGPRP, the “shrunken log2 fold change” value was determined as 0.298.

As for RRIRPRPPRLPRPRPRPAFGPRP, the “shrunken log2 fold change” value worked out at 0.45.

For the sequence RRIRPRPPRLPRPRPRPWSMPRP, the “shrunken log2 fold change” value is -0.155.

Take RRIRNRPPRLPRPRPRPATGPRP: the “shrunken log2 fold change” value was -0.04.

In the case of RRIRCRPPRLPRPRPRPKTKPRP, the “shrunken log2 fold change” value came to 0.177.

For RRIRNRPPRLPRPRPRPYICPRP, the “shrunken log2 fold change” value was -0.0343.

For RRIRKRPPRLPRPRPRPGMCPRP, the “shrunken log2 fold change” value stood at 0.863.

RRIRGRPPRLPRPRPRPGIPPRP: the “shrunken log2 fold change” value came out at 0.351.

Turning to RRIRNRPPRLPRPRPRPEFCPRP, the “shrunken log2 fold change” value is 0.0216.

With RRIRHRPPRLPRPRPRPLICPRP, the “shrunken log2 fold change” value was -0.493.

Take RRIRSRPPRLPRPRPRPNVDPRP: the “shrunken log2 fold change” value stood at 0.0085.

For the sequence RRIRRRPPRLPRPRPRPESEPRP, the “shrunken log2 fold change” value is 0.0778.

As for RRIRLRPPRLPRPRPRPPYTPRP, the “shrunken log2 fold change” value was -0.674.

As to RRIRERPPRLPRPRPRPACAPRP, the “shrunken log2 fold change” value was 0.455.

As to RRIRTRPPRLPRPRPRPTDVPRP, the “shrunken log2 fold change” value worked out at 0.284.

On to RRIRGRPPRLPRPRPRPWGGPRP, for which the “shrunken log2 fold change” value is 0.808.

RRIRFRPPRLPRPRPRPMSTPRP: the “shrunken log2 fold change” value was -0.386.

For RRIRYRPPRLPRPRPRPAWLPRP, the “shrunken log2 fold change” value was -0.0755.

RRIRPRPPRLPRPRPRPKGEPRP: the “shrunken log2 fold change” value worked out at 0.125.

RRIRNRPPRLPRPRPRPFRQPRP: the “shrunken log2 fold change” value is 0.0231.

As to RRIRSRPPRLPRPRPRPAVWPRP, the “shrunken log2 fold change” value was 0.765.

With RRIRERPPRLPRPRPRPWTEPRP, the “shrunken log2 fold change” value was 0.027.

As for RRIRVRPPRLPRPRPRPMARPRP, the “shrunken log2 fold change” value was found to be 0.0955.

For the sequence RRIRNRPPRLPRPRPRPFGIPRP, the “shrunken log2 fold change” value is -0.0138.

Consider RRIRERPPRLPRPRPRPGLYPRP, for which the “shrunken log2 fold change” value was -0.233.

For the sequence RRIRGRPPRLPRPRPRPKAVPRP, the “shrunken log2 fold change” value is 0.89.

As for RRIRVRPPRLPRPRPRPEVPPRP, the “shrunken log2 fold change” value was 0.326.

As for RRIRQRPPRLPRPRPRPKDPPRP, the “shrunken log2 fold change” value is -0.000135.

In the case of RRIRNRPPRLPRPRPRPLLGPRP, the “shrunken log2 fold change” value was 0.232.

As to RRIRERPPRLPRPRPRPHGDPRP, the “shrunken log2 fold change” value was -0.0135.

Regarding RRIRNRPPRLPRPRPRPTPVPRP, the “shrunken log2 fold change” value is 0.425.

As for RRIRKRPPRLPRPRPRPDNAPRP, the “shrunken log2 fold change” value is 0.05.

In the case of RRIRDRPPRLPRPRPRPYELPRP, the “shrunken log2 fold change” value is -0.118.

RRIRCRPPRLPRPRPRPIVTPRP: the “shrunken log2 fold change” value was 0.0598.

For the sequence RRIRSRPPRLPRPRPRPSWWPRP, the “shrunken log2 fold change” value amounted to 0.0841.

Take RRIRLRPPRLPRPRPRPCIFPRP: the “shrunken log2 fold change” value was -0.463.

On to RRIRARPPRLPRPRPRPANGPRP, for which the “shrunken log2 fold change” value worked out at 0.109.

For RRIRIRPPRLPRPRPRPITEPRP, the “shrunken log2 fold change” value is -1.09.

In the case of RRIRLRPPRLPRPRPRPFWAPRP, the “shrunken log2 fold change” value worked out at 0.0214.

As for RRIRERPPRLPRPRPRPFQLPRP, the “shrunken log2 fold change” value was found to be 0.053.

Turning to RRIRIRPPRLPRPRPRPPWVPRP, the “shrunken log2 fold change” value was found to be 0.0988.

With RRIRGRPPRLPRPRPRPVIGPRP, the “shrunken log2 fold change” value was found to be 0.388.

As to RRIRKRPPRLPRPRPRPQDFPRP, the “shrunken log2 fold change” value came to 0.00806.

Take RRIRFRPPRLPRPRPRPALQPRP: the “shrunken log2 fold change” value is -0.142.

RRIRWRPPRLPRPRPRPRYAPRP: the “shrunken log2 fold change” value was determined as 0.32.

As for RRIRSRPPRLPRPRPRPDTLPRP, the “shrunken log2 fold change” value is -0.126.

On to RRIRHRPPRLPRPRPRPIHSPRP, for which the “shrunken log2 fold change” value was 0.0202.

Regarding RRIRGRPPRLPRPRPRPLASPRP, the “shrunken log2 fold change” value is 0.894.

For RRIRTRPPRLPRPRPRPTSSPRP, the “shrunken log2 fold change” value came to 0.113.

As to RRIRIRPPRLPRPRPRPKQTPRP, the “shrunken log2 fold change” value is -0.0291.

On to RRIRYRPPRLPRPRPRPEACPRP, for which the “shrunken log2 fold change” value was -0.0328.

As to RRIRNRPPRLPRPRPRPRNVPRP, the “shrunken log2 fold change” value is -0.3.

As to RRIRPRPPRLPRPRPRPNWDPRP, the “shrunken log2 fold change” value is 0.0377.

Take RRIRCRPPRLPRPRPRPHVSPRP: the “shrunken log2 fold change” value was -0.37.

For RRIRLRPPRLPRPRPRPYKHPRP, the “shrunken log2 fold change” value is -0.619.

On to RRIRIRPPRLPRPRPRPKIKPRP, for which the “shrunken log2 fold change” value is -0.696.

RRIRQRPPRLPRPRPRPVAVPRP: the “shrunken log2 fold change” value worked out at 0.257.

As to RRIRMRPPRLPRPRPRPTVNPRP, the “shrunken log2 fold change” value amounted to 0.177.

For RRIRDRPPRLPRPRPRPAQRPRP, the “shrunken log2 fold change” value came out at 0.152.

As to RRIRGRPPRLPRPRPRPAGKPRP, the “shrunken log2 fold change” value was found to be 0.338.

Consider RRIRERPPRLPRPRPRPGVEPRP, for which the “shrunken log2 fold change” value is -0.194.

On to RRIRTRPPRLPRPRPRPHFGPRP, for which the “shrunken log2 fold change” value is -0.00836.

With RRIRNRPPRLPRPRPRPGLLPRP, the “shrunken log2 fold change” value was -0.171.

Take RRIRFRPPRLPRPRPRPFWEPRP: the “shrunken log2 fold change” value was -0.193.

On to RRIRERPPRLPRPRPRPGDNPRP, for which the “shrunken log2 fold change” value is -0.0779.

As to RRIRWRPPRLPRPRPRPSEFPRP, the “shrunken log2 fold change” value was determined as 0.144.

For the sequence RRIRLRPPRLPRPRPRPVNEPRP, the “shrunken log2 fold change” value was -0.0825.

Turning to RRIRKRPPRLPRPRPRPIPFPRP, the “shrunken log2 fold change” value came out at 0.347.

Turning to RRIRQRPPRLPRPRPRPCSEPRP, the “shrunken log2 fold change” value was -0.201.

The record behind these values is the supplement of paper PMC9112550, “Optimization of the antimicrobial peptide Bac7 by deep mutational scanning” (BMC Biology, 2022).
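Note: peptides expressed intracellularly from a pBAD plasmid library in pooled LB shake-flask culture, induced with 0.3% L-arabinose, DNA abundance read by NGS, three biological replicates, DESeq2 with apeglm shrinkage.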
